Sequences and labels used below:
B2: Frz6 (endogenous, LS174T cells) (receptor, human, UniProt O60353 19-706, looked up)
chain: HSLFTCEPITVPRCMKMAYNMTFFPNLMGHYDQSIAAVEMEHFLPLANLECSPNIETFLCKAFVPTCIEQIHVVPPCRKLCEKVYSDCKKLIDTFGIRWPEELECDRLQYCDETVPVTFDPHTEFLGPQKKTEQVQRDIGFWCPRHLKTSGGQGYKFLGIDQCAPPCPNMYFKSDELEFAKSFIGTVSIFCLCATLFTFLTFLIDVRRFRYPERPIIYYSVCYSIVSLMYFIGFLLGDSTACNKADEKLELGDTVVLGSQNKACTVLFMLLYFFTMAGTVWWVILTITWFLAAGRKWSCEAIEQKAVWFHAVAWGTPGFLTVMLLAMNKVEGDNISGVCFVGLYDLDASRYFVLLPLCLCVFVGLSLLLAGIISLNHVRQVIQHDGRNQEKLKKFMIRIGVFSGLYLVPLVTLLGCYVYEQVNRITWEITWVSDHCRQYHIPCPYQAKAKARPELALFMIKYLMTLIVGISAVFWVGSKKTCTEWAGFFKRNRKRDPISESRRVLQESCEFFLKHNSKVKHKKKHYKPSSHKLKVISKSMGTSTGATANHGTSAVAITSHDYLGQETLTEIQTSPETSMREVKADGASTPRLREQDCGEPASPAASISRLSGEQVDGKGQAGSVSESARSEGRISPKSDITDTGLAQSNNLQVPSSSEPSSLKGSTSLLVHPVSGVRKEQGGGCHSDT
notes: whole, on cells

Assay [1] addresses T1, Rspo1-Fc fusion protein (Homo sapiens (Human), UniProt Q2MKA7 21-263, limits assumed).
T1 construct: also called Rspondin1 IgFc fusion protein; not shown: Fc (IgFc) part
Description: HEK293T cells transfected with the tagged Lgr, incubated with Rspo1-Fc, protein G immunoprecipitation, anti-FLAG Western blot. The source says:
FIG. 7A: Rspondin1 binds to Lgr4, Lgr5 and Lgr6. […] Bottom: Input of tagged proteins.

The target in assay [2] is T2, FLAG/HA-tagged Lgr4 (human, UniProt Q9BXB1 25-951).
T2 construct: whole, on cells; also called Lgr4 bait; FH-tagged human Lgr4; not shown: FLAG/HA double tag
As to the kind of experiment: TAP (anti-FLAG, anti-HA) + mass spectrometry, bait stably expressed in LS174T cells, Exp 2. On the procedure:
(§1) Left panel (Exps 1-7): HEK293T cells were transiently transfected, and LS174T cells were stably, transfected with the indicated tagged proteins. Right panel (Exps 8-9): HEK293T cells were incubated with the indicated tagged soluble proteins at 1 μg/ml. Sequential immunoprecipitation was performed by anti-FLAG and anti-HA antibodies and the associated complexes were analysed by mass spectrometry. Number of assigned spectra, number of unique peptides and the MASCOT Protein Score are given for selected identified proteins.

The target of assay [3] is T3, LRP5 (endogenous) (human, UniProt O75197 32-1615).
T3 construct: whole, on cells
T3 sequence (O75197 32-1615): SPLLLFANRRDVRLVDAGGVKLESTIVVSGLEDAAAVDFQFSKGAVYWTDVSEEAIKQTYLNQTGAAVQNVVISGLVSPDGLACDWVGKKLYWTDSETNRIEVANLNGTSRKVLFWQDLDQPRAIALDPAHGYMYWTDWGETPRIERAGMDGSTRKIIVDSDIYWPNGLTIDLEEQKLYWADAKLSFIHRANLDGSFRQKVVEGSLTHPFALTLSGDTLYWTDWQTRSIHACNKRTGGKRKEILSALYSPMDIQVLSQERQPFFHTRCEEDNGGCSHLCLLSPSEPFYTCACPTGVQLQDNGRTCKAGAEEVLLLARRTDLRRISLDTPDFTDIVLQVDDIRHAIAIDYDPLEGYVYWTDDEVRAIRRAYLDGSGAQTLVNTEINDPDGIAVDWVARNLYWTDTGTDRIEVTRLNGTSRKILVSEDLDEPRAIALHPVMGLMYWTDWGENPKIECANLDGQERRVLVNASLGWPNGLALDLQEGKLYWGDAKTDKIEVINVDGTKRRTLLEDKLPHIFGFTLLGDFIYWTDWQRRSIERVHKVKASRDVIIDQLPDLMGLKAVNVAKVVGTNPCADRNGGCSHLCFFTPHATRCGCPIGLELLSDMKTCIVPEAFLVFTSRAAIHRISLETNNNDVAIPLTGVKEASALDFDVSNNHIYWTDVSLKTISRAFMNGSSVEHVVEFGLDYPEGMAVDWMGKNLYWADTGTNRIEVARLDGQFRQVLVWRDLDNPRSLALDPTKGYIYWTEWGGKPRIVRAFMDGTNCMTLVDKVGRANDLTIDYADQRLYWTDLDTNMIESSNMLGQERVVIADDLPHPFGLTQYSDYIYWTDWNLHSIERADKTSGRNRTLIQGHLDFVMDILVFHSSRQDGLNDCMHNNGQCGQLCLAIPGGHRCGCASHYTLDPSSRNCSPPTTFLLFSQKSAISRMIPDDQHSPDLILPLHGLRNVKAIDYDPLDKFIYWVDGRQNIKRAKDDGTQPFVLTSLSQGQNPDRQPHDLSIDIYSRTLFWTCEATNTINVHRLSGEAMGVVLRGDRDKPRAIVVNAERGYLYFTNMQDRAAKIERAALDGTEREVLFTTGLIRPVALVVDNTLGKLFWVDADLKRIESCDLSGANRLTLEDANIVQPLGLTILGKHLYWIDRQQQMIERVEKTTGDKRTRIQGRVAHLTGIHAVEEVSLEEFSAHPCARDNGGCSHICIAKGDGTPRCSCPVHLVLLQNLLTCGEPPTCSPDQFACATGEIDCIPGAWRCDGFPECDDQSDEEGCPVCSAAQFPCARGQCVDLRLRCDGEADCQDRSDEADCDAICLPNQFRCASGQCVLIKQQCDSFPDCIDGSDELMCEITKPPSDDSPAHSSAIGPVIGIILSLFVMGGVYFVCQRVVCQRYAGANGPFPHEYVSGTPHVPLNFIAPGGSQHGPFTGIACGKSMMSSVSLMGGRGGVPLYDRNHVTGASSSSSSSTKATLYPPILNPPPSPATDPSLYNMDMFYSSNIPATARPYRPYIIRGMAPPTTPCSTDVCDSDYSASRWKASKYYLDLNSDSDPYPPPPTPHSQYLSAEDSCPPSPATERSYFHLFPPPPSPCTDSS
Description: TAP (anti-FLAG, anti-HA) + mass spectrometry, 293T cells incubated with the soluble tagged bait, Exp 9. How it is done:
as §1

In assay [4] the target is T4, LRP6 (endogenous) (human, UniProt O75581 20-1613).
T4 construct: whole, on cells
T4 sequence (O75581 20-1613): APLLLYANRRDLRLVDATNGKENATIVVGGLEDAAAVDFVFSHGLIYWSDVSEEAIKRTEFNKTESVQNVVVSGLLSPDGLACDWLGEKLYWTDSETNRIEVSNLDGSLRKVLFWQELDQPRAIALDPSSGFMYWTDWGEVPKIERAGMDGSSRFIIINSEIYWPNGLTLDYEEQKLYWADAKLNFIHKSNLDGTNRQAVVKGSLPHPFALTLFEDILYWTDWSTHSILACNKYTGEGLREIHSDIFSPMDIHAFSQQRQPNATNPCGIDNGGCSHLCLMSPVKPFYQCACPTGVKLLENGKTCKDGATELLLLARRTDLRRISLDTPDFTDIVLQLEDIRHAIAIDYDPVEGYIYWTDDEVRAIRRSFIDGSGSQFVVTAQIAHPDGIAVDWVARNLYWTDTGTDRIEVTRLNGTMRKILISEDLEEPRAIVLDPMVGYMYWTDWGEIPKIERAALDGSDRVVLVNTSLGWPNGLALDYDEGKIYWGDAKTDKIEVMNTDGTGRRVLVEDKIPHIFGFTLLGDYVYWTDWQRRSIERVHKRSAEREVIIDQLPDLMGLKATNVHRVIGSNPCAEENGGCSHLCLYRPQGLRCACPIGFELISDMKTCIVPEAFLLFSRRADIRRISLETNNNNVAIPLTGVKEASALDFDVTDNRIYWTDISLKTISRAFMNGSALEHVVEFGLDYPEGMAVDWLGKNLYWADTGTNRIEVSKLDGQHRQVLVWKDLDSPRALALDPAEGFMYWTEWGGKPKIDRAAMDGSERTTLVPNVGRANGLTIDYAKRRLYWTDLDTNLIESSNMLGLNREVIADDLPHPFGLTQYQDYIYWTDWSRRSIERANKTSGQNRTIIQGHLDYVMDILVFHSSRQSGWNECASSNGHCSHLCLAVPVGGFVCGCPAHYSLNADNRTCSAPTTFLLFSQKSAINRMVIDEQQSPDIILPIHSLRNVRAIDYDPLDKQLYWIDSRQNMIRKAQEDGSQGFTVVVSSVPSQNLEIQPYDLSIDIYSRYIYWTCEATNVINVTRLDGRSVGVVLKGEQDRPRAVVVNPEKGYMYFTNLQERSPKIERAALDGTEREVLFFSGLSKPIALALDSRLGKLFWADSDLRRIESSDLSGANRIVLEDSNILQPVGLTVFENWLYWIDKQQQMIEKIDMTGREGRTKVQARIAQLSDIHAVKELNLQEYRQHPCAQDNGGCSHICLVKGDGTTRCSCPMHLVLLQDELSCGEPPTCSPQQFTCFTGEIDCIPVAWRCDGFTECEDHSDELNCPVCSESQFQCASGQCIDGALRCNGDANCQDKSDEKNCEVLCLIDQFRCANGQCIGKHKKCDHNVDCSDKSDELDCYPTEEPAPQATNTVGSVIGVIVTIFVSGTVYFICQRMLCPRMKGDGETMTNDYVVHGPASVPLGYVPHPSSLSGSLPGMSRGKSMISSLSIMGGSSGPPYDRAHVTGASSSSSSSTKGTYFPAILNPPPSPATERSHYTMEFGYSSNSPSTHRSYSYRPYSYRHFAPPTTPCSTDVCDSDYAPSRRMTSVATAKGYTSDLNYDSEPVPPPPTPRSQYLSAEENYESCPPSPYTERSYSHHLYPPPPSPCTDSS
The assay is described as above. On the procedure: as §1

In assay [5] the target is T5, Lgr5-exo-Fc (leucine-rich-repeat exodomain of Lgr5, amino acids 1 to 546, human IgG-Fc fusion protein) (human, UniProt O75473 22-546).
T5 construct: range 1-546; also called LGR5-Fc; huLGR5-Fc; not shown: human IgG-Fc
T5 sequence (looked up): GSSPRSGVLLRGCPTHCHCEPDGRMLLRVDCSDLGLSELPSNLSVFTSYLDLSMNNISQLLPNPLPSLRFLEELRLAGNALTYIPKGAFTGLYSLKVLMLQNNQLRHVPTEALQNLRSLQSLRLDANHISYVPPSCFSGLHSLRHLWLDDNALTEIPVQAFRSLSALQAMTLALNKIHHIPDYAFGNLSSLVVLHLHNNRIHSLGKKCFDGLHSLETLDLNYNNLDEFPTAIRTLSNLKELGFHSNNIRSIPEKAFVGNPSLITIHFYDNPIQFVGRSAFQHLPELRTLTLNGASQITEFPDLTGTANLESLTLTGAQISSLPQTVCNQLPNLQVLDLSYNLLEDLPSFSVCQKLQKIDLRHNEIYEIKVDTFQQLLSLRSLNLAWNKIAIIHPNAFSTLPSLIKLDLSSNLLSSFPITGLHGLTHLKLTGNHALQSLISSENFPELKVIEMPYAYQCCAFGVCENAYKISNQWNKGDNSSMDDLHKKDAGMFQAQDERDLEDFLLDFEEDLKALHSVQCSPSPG
Description: SPR array imaging (IBIS MX96), RSpo-1-FH captured on anti-Flag spots of decreasing density, 1:1 model, extrapolated to Rmax=0. The source says:
FIG. 15: Rspondin1-Lgr5 interaction KD determination by Surface Plasmon Resonance array imaging. […] In IBIS-SPRint software (version 2) an exponential fitting routine y=a*ebx was used for extrapolating the values of KD and kd at Rmax=0 (arrows).
Method: IBIS-SPRinT 2.0. An array of anti-Flag spots with decreasing densities was printed on a preactivated sensor surface (IBIS Technologies, Enschede, the Netherlands) using a continuous flow microspotter (CFM) (Wasatch Microfluidics, Utah, US).

Assay [6] deals with T5, Lgr5-exo-Fc (leucine-rich-repeat …). Description: SPR array imaging (IBIS MX96), Rspo1-FH captured on anti-FLAG, LGR5-Fc at 45, 23 and 11 nM, 1:1 discrete interaction model. The source says: This allowed us to perform a binding experiment using Surface Plasmon Resonance array imaging.
The target in assay [7] is T6, Frz7 (endogenous, LS174T cells) (human, UniProt O75084 33-574).
T6 construct: whole, on cells
As to the kind of experiment: TAP (anti-FLAG, anti-HA) + mass spectrometry, bait stably expressed in LS174T cells, Exp 7. How it is done:
as §1

In assay [8] the target is B2. Described as above. On the procedure: as §1

The source of these data is patent US20140044713A1 (KONINKLIJKE NEDERLANDSE AKADEMIE VAN WETENSCHAPPEN, published 2014).

A word on the Kd: it is the concentration at which binding is half-saturated. For orientation: koff means the first-order rate constant of dissociation. The term kon denotes the second-order rate constant of association.

B1: Lgr1 (receptor, not shown: small tags and cut ends)
chain: CHHRICHCSNRVFLCQESKVTEIPSDLPRNAIELRFVLTKLRVIQKGAFSGFGDLEKIEISQNDVLEVIEADVFSNLPKLHEIRIEKANNLLYINPEAFQNLPNLQYLLISNTGIKHLPDVHKIHSLQKVLLDIQDNINIHTIERNSFVGLSFESVILWLNKNGIQEIHNCAFNGTQLDELNLSDNNNLEELPNDVFHGASGPVILDISRTRIHSLPSYGLENLKKLRARSTYNLKKLPTLEKLVALMEASLTYPSHCCAFANWRRQISELHPICNKSILRQEVDYMTQARGQRSSLAEDNESSYSRGFDMTYTEFDYDLCNEVVDVTCSPKPDAFNPCEDIMGYNILRVLIWFISILAITGNIIVLVILTTSQYKLTVPRFLMCNLAFADLCIGIYLLLIASVDIHTKSQYHNYAIDWQTGAGCDAAGFFTVFASELSVYTLTAITLERWHTITHAMQLDCKVQLRHAASVMVMGWIFAFAAALFPIFGISSYMKVSICLPMDIDSPLSQLYVMSLLVLNVLAFVVICGCYIHIYLTVRNPNIVSSSSDTRIAKRMAMLIFTDFLCMAPISFFAISASLKVPLITVSKAKILLVLFHPINSCANPFLYAIFTKNFRRDFFILLSKCGCYEMQAQIYRTETSSTVHNTHPRNGHCSSAPRVTSGSTYILVPLSHLAQN
notes: Control lane of the Rspo1-Fc pull-down
Consider B1, for which the binding result in assay [1] is “no binding (tested: ~1 µg/ml)”.

Turning to B2, the binding result in assay [2] is “no binding”.

B3: double (FLAG-HA)-tagged version of human Rspo-1 (Rspo1-FH) (ligand)
chain: SRGIKGKRQRRISAEGSQACAKGCELCSEVNGCLKCSPKLFILLERNDIRQVGVCLPSCPPGYFDARNPDMNKCIKCKIEHCEACFSHNFCTKCKEGLYLHKGRCYPACPEGSSAANGTMECSSPAQCEMSEWSPWGPCSKKQQLCGFRRGSEERTRRVLHAPVGDHAACSDTKETRRCTVRRVPCPEGQKRRKGGQGRRENANRNLARKESKEAGAGSRRRKGQQQQQQQGTVGPLTSAGPA
notes: Used as HEK293T conditioned medium; also called huRSPO1-FH; not shown: FLAG-HA double tag
As for B3, the binding result in assay [3] is recorded as “no binding (tested: 1 µg/ml)”. Moreover, the binding result in assay [4] was “no binding (tested: 1 µg/ml)”. Moreover, in assay [5], the Kd was 3.07 nM, the off-rate (koff) was 0.000155 s⁻¹ and the on-rate (kon) was 50400 M⁻¹ s⁻¹. In assay [6], this molecule showed a Kd of approximately 3 nM.

B4: tagged Frizzled5 (Frz5) (receptor, UniProt Q13467 27-585, looked up)
chain: ASKAPVCQEITVPMCRGIGYNLTHMPNQFNHDTQDEAGLEVHQFWPLVEIQCSPDLRFFLCSMYTPICLPDYHKPLPPCRSVCERAKAGCSPLMRQYGFAWPERMSCDRLPVLGRDAEVLCMDYNRSEATTAPPRPFPAKPTLPGPPGAPASGGECPAGGPFVCKCREPFVPILKESHPLYNKVRTGQVPNCAVPCYQPSFSADERTFATFWIGLWSVLCFISTSTTVATFLIDMERFRYPERPIIFLSACYLCVSLGFLVRLVVGHASVACSREHNHIHYETTGPALCTIVFLLVYFFGMASSIWWVILSLTWFLAAGMKWGNEAIAGYAQYFHLAAWLIPSVKSITALALSSVDGDPVAGICYVGNQNLNSLRGFVLGPLVLYLLVGTLFLLAGFVSLFRIRSVIKQGGTKTDKLEKLMIRIGIFTLLYTVPASIVVACYLYEQHYRESWEAALTCACPGHDTGQPRAKPEYWVLMLKYFMCLVVGITSGVWIWSGKTVESWRRFTSRCCCRPRRGHKSGGAMAAGDYPEASAALTGRTGPPGPAATYHKQVSLSHV
notes: whole, on cells; also called double-tagged Frizzled5; Frz5 bait; not shown: FLAG/HA tag
In the case of B4, the binding result in assay [7] and in assay [8] was “no binding” in each case.
